Measurements: PMC3670613 (Structure (London, England : 1993), 2013)
Read-outs that look alike come from different tables or passages of the source.

What was measured:
[1] = molecular target: T1, S. cerevisiae Rpn14 (recombinant) (S. cerevisiae, UniProt P53196 1-417); assay: AUC
[2] = molecular target: T1, S. cerevisiae Rpn14 (recombinant); assay: AUC; remark: listed apart in the source
[3] = molecular target: T1, S. cerevisiae Rpn14 (recombinant); assay: NMR titration

T1 sequence (P53196 whole entry): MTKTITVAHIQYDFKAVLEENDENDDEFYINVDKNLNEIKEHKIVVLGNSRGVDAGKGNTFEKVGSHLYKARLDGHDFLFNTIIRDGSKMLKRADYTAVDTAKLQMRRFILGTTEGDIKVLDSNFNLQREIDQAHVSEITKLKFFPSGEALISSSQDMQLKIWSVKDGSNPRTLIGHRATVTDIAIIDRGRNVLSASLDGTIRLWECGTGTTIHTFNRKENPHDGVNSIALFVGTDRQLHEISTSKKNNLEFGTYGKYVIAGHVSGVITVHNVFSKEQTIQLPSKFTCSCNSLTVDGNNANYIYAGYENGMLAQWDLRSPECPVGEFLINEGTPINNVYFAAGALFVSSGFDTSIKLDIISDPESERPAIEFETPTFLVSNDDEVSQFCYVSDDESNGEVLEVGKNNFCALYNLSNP

B1: S. cerevisiae Rpt6 C-terminal domain (Rpt6-C), P318-K405 (domain or fragment, UniProt Q01939 318-405, looked up)
chain: PPSVAARAEILRIHSRKMNLTRGINLRKVAEKMNGCSGADVKGVCTEAGMYALRERRIHVTQEDFELAVGKVMNKNQETAISVAKLFK
[1]
  Kd: 0.25 nM
  stoichiometry N: 1

B2: Rpt6-C G^360,387A (domain or fragment, S. cerevisiae, UniProt Q01939 318-405, looked up)
chain: PPSVAARAEILRIHSRKMNLTRGINLRKVAEKMNGCSGADVKAVCTEAGMYALRERRIHVTQEDFELAVAKVMNKNQETAISVAKLFK
[2]
  Kd: 0.01 nM

B3: Rpt6-C (P318-N393) (domain or fragment, S. cerevisiae, UniProt Q01939 318-393, looked up)
chain: PPSVAARAEILRIHSRKMNLTRGINLRKVAEKMNGCSGADVKGVCTEAGMYALRERRIHVTQEDFELAVGKVMNKN
[3]
  binding result: binds
